Measurements reported in patent US8445635B2, “Modified H2 relaxin for tumor suppression” (Armour Therapeutics Inc., priority 2006, dated 2013).

Legend:
[1] = target: T1, relaxin receptors on THP-1 cells (Homo sapiens, UniProt Q9HBX9); test: THP-1 cAMP bioassay; conditions: THP-1 and PC3-Luc cell cultures
T1 sequence (Q9HBX9 1-757): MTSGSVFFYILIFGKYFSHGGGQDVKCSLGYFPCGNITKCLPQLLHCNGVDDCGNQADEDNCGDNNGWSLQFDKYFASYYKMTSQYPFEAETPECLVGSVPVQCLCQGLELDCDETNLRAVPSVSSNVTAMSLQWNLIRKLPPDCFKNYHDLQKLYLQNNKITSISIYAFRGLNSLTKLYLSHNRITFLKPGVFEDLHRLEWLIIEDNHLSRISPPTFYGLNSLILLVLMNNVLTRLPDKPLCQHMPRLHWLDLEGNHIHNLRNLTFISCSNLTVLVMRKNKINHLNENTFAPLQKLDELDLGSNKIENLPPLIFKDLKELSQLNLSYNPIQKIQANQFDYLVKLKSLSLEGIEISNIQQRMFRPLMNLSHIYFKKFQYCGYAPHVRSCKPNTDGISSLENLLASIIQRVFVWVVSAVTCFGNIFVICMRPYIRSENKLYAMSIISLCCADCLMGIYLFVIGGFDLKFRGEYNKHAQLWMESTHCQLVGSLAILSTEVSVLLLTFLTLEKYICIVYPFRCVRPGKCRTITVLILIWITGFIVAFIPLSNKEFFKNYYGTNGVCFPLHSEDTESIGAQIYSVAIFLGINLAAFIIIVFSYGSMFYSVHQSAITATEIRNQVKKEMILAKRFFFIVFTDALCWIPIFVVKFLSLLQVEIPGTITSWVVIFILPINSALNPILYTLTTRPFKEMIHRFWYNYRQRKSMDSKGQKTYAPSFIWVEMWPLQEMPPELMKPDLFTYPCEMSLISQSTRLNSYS
Source text: To confirm the biological activity of the H2 and ΔH2 relaxins, the cAMP Biotrak E1A System was employed (Amersham Biosciences) as described before (Parsell, D. A., Mak, J. Y., Amento, E P., Unemori, E. N. 1996. Relaxin binds to and elicits a response from cells of the human monocytic cell line, THP-1. J Biol Chem. 271:27936-41; Silvertown, J. D., Geddes, B. J., Summerlee, A. J. 2003. Adenovirus mediated expression of human prorelaxin promotes the invasive potential of canine mammary cancer cells. Endocrinology. 144:3683-91). For measuring bioactivity from CM, 40 μL from each concentrated CM sample was added to THP-1 cells. For measuring cAMP levels directly from the LV-infected PC3-Luc cells, 1×10^5 cells were seeded in a 96-well plate and equilibrated for 2 h before cAMP was measured as described (Parsell, D. A., Mak, J. Y., Amento, E P., Unemori, E. N. 1996. Relaxin binds to and elicits a response from cells of the human monocytic cell line, THP-1. J Biol Chem. 271:27936-41; Silvertown, J. D., Geddes, B. J., Summerlee, A. J. 2003. Adenovirus-mediated expression of human prorelaxin promotes the invasive potential of canine mammary cancer cells. Endocrinology. 144:3683-91). The THP-1 cAMP assay was also adapted for an H2 relaxin competitive assay. […]

LGR7 = target: T2, LGR7 (Homo sapiens, UniProt Q9HBX9); test: Flow cytometry-based relaxin binding assay on 293T-LGR7 cells, competed with bH2; conditions: unconcentrated CM, WT H2 1 and 4 ng/mL, ΔH2 1 ng/mL, competed with 5 ng bH2
T2 construct: expressed in transfected cells; host or cells: 293T-LGR7 (293T human embryonic kidney cells)
T2 sequence (Q9HBX9 1-757): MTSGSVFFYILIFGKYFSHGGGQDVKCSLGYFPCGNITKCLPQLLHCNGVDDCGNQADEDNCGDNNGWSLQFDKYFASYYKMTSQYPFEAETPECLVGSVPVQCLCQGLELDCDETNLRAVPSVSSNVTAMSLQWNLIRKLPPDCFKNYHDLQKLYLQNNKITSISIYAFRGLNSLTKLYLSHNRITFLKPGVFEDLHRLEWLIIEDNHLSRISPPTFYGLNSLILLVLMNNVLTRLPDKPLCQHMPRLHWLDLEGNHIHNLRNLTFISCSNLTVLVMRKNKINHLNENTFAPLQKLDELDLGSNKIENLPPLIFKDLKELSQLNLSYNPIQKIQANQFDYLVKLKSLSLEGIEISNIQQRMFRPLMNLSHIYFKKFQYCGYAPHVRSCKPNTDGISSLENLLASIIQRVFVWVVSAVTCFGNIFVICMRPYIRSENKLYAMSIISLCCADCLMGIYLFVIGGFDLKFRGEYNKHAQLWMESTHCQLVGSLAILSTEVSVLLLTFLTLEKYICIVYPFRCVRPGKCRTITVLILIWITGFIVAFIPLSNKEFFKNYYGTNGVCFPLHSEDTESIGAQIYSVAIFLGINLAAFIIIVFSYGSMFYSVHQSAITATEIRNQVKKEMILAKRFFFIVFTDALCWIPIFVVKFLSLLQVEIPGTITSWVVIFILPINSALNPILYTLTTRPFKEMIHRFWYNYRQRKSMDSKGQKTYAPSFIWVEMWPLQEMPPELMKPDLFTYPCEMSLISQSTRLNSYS
Method: To optimize collection of recombinant ΔH2 peptide for this assay, single-cell clones of LV-infected 293T cell cultures were isolated. Clones were confirmed by flow cytometry measuring eGFP fluorescence and selected based on highest expression. 293T-eGFP#3, 293TΔH2/eGFP#6, 293T-H2/eGFP#3 cell cultures were seeded in 15-cam plates in complete medium overnight, refreshed with Dulbecco's Modified Eagle Medium (DMEM) medium containing 2% FCS after 24 h, and incubated for an additional 48 h. At this point, CM were collected for assays. H2 relaxin levels in unconcentrated CM from 293T-eGFP#3, 293TΔH2/eGFP#6, 293T-H2/eGFP#3 cell cultures were approximated by the H2 ELISA to be 0, 1, and 4 ng/mL (data not shown).
293T-LGR7 cells were collected, washed with PBS supplemented with 1% FCS (PBS-1%), and resuspended at 1.67×10^7 cells/mL. For each sample, 30 μl (0.5×10^6 […]) were added per 5 mL polystyrene round-bottom Falcon tube (Becton Dickinson Labware, Franklin Lakes, N.J., USA). Control samples contained 50 μL of either PBS-1% containing 5 ng of rH2 or 50 μL of PBS-1% alone. […] Samples were incubated for 15 min at RT. […] Cells were washed twice with 500 μL of PBA-1% and analyzed on a FACSCalibur flow cytometer) BDBiosciences, Franklin Lakes, N. J., USA).

relaxin receptor = conditions: Bullesbach 1992; cited from earlier work
[2] = Plasma osmolality of PC3-Luc tumor-bearing mice at week 11; assay type: in vivo, mouse; conditions: week 11, P=0.04
Method: To determine whether H2 and ΔH2 relaxins secreted from the PC3-Luc tumor xenografts elicited a systemic physiological response, plasma osmolality was measured from the animals at the termination of the study (FIG. 4D). Plasma osmolality readings obtained from PC3-H2/eGFP, PC3-Luc-eGFP and PC3-Luc-ΔH2/eGFP animals averaged 330±4.6 […] and 342±4.6 mmol/L, respectively. […] Overexpression of ΔH2 relaxin in the tumor microenvironment may inhibit endogenous H2 relaxin progrowth signals to tumor cells or tumor-infiltrated ECs.
Six-to-eight week old male NOD/SCID mice (The Jackson Laboratory; Bar Harbour, Me.) wore maintained at the Animal Resource Facility (PMH, Toronto, Canada) under an approved UHN protocol. […] Tumors were measured weekly by calipers and tumor volume approximated (l×w×d), as described previously (Silvertown, J. D., Ng, J., Sato, T., Summerlee, A. J., Medin, J. A. 2006. H2 relaxl; overexpression increases in vivo prostate xenograft tumor growth and angiogenesis. Iift J Cancer. 118:62-73). […] For plasma osmolality readings, approximately 100-200 μL of blood was collected in heparin (heparin sodium, 1000 USP units/mL; Hepalean) and sent for analysis (Animal Health Laboratory, Department of Pathobiology, University of Guelph).

Bioactivity by cAMP assays [1]: significantly impaired
receptor affinity (LGR7): low
B1: ΔH2: H2 relaxin with lysine substitution at B13 and B17 of the receptor binding domain, B20 Ile (protein, UniProt P04090 1-185, looked up, variant R13K R17K)
chain: MPRLFFFHLLGVCLLLNQFSRAVADSWMEEVIKLCGKELVKAQIAICGMSTWSKRSLSQEDAPQTPRPVAEIVPSFINKDTETINMMSEFVANLPQELKLTLSEMQPALPQLQQHVPVLKDSSLLFEEFKKLIRNRQSEAADSSPSELKYLGLDTHSRKKRQLYSALANKCCHVGCTKRSLARFC
modifications: B-chain numbering
biological activity (relaxin receptor): biologically inactive
lower affinity for receptor binding than wild type H2 relaxin (relaxin receptor): ~2200 fold
plasma osmolality increase compared to wild-type H2-expressing tumor animals [2]: approximately 12 mmol/L
